One molecule from paper PMC2962642, “Familial Glucocorticoid Receptor Haploinsufficiency by Non-Sense Mediated mRNA Decay, Adrenal Hyperplasia and Apparent Mineralocorticoid Excess” can be followed below.

In the data set the target is hGRalpha-R469X (Homo sapiens, UniProt P04150 1-468). The data set can be described thus: EMSA; 15 min at 25 C; 4.5% acrylamide/bisacrylamide (37:1) gel, 0.25x TBE (50 mM Tris, 50 mM boric acid, 1 mM EDTA); binding buffer and pH not stated (as in ref. 26). The following applies: protein: ivt; label: 32P-dCTP (Klenow fill-in); 5' overhangs AGCT, filled in by Klenow for the labeled probe. For orientation: A gel shift assay detects complexes by their altered migration in electrophoresis.
hGRalpha-R469X, sequence (P04150 1-468): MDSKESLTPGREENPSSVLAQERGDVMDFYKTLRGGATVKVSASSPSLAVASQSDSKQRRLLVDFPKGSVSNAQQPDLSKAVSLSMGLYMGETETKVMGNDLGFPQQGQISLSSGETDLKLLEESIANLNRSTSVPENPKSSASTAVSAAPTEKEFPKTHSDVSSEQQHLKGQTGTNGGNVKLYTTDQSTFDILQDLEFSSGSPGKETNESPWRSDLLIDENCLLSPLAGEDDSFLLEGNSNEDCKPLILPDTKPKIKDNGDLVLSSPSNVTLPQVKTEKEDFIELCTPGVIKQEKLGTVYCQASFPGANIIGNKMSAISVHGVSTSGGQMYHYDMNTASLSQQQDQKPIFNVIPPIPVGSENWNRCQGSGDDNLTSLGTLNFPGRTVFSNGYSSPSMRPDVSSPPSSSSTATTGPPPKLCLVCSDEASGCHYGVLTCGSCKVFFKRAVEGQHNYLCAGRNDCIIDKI

B1: GRE consensus probe (dsDNA)
DNA 1: AGCTGCTCAGCTAGAACACTCTGTTCTCTACT
DNA 2: AGCTAGTAGAGAACAGAGTGTTCTAGCTAGC
On to B1, for which the binding result is “no binding”.
